Experimental data from a protein production outcome set (Wang et al. 2014).

Test: label from the status in PepcDB records

## MAVRQVTVGYSDGTHKTMPVRCDQTVLDAAEEHGVAIVNECQSGICGTCVATCTAGRYQMGRTEGLSDVERAARKILTCQTFVTSDCRIELQYPVDDNAALLVTGDGVVTAVELVSPSTAILRVDTSGMAGALRYRAGQFAQLQVPGTNVWRNYSYAHPADGRGECEFIIRLLPDGVMSNYLRDRAQPGDHIALRCSKGSFYLRPIVRPVILVAGGTGLSAILAMAQSLDADVAHPVYLLYGVERTEDLCKLDELTELRRRVGRLEVHVVVARPDPDWDGRTGLVTDLLDERMLASGDADVYLCGPVAMVDAARTWLDHNGFHRVGLYYEKFVASGAARRRTPARLDYAGVDIAEVCRRGRGTAVVIGGSIAGIAAAKMLSETFDRVIVLEKDGPHRRREGRPGAAQGWHLHHLLTAGQIELERIFPGIVDDMVREGAFKVDMAAQYRIRLGGTWKKPGTSDIEIVCAGRPLLEWCVRRRLDDEPRIDFRYESEVADLAFDRANNAIVGVAVDNGDADGGDGLQVVPAEFVVDASGKNTRVPEFLERLGVGAPEAEQDIINCFYSTMQHRVPPERRWQDKVMVICYAYRPFEDTYAAQYYTDSSRTILSTSLVAYNCYSPPRTAREFRAFADLMPSPVIGENIDGLEPASPIYNFRYPNMLRLRYEKKRNLPRALLAVGDAYTSADPVSGLGMSLALKEVREMQALLAKYGAGHRDLPRRYYRAIAKMADTAWFVIREQNLRFDWMKDVDKKRPFYFGVLTWYMDRVLELVHDDLDAYREFLAVVHLVKPPSALMRPRIASRVLGKWARTRLSGQKTLIARNYENHPIPAEPADQLVNA
  protein production: failed

## MKFLDNIKKNQSLMRFIETTQSHMVTAEIGNSSVVVAYYLLLSLFPLLIAVGNVLPYLRIDPNSVLPYIAEAIPKDVYKNLEPAIRSLLTQRSGGLLSVSALAAFWSASQSINALQNAMNKAFGVEQRKNFILVRVVSFLVILLFMVAIVGVVVILGLGQYIIELLQPIFHYSTSVIDTFQALKWPLTTVVLLVIMCLIYAVVPNRKLSLRSILPGAIFSTVGWMLLSQIFGLYVKYFSSRIASYQIIGSFIILMLWLNFAATIIILGAIVNAVVDEYLSGDKEKKQPSFEQRLFRWFKKKK
  protein production: failed

## MLTVDQLALLFVLLLGAVVSVPVGDRFGLPAPVLMTLLGIGLAVADFVPNVDIPPDLILPALLPPLLYAAVRRTSWRQFTANKRPIFLLAVALVFVTTAVVALVAGAIVPGLPIAAAVALGALVAPPDPVAATAVAGQLGLPRRLVSILEGEGLFNDVTAIVLYHVAIAAAVSGTFSLPNAVLDLVLSAVVAVAVGLALGWAANRLMDLLDDVTLQIGLTLLVPYASYVLAEELHGSGVLAVLTTALFLAEYATDADDVMTRLAGHTFWNVVDTLVTGVAFGLIGLELHNALRTASGRWGEMLGWAAAIVAVVVLVRLAYLLPATWLTKRLHAKRDYDEEIPTSWRETVVMWWAGMRGVASAALALAIPLKMDDGSPFPDRDEIVFIAFGVIMGTLVLQGLTLPWLVKRLGVRADTGSEKAFEKALAIRAAKAAKRRLREIEDVEELPEELSEQLLRRAFDIGARISPDLGDEERREAHEQRVRRMKRVRRIQGEMMSAARHEVLAARSEPGADPEIVDRVLRHLDVRSLR
  protein production: failed

## MILGIDIGGANTKITELHENGEFKVHHLYFPMWKNNDKLAEVLKTYSKDISHVALVTTAELADSYETKKEGVDNILNAAESAFGSNISVFDSDGNFISLEGAKTNYMKVSASNWCGTAKWVSKNIEENCILVDMGSTTTDIIPIVDGKVVAEKTDLERLMNHELLYVGTLRTPISHLGNTILFKGVNTNVSSEYFAITADISVVLEKVTTEEYTCDTPDGKGTDKRSSLVRISKVLCSDLDQISEIDAENIAKTYYELWKELILENVKKVAEKYGSKKVVITGIGENILKDALGDFEVISVAERYGKDVSLATPSFAVAELLKNELLEHHHHHH
  protein production: not failed

## AIACHTQVGGSMQVPEPRRPFTCSSENNVTNSFFEEAYSASFRSKLYNMVEEIEQERAKYCNSANLSYMDAFGVEKESIEEDYNKEEDRDSLCSVDIADNSETSNRSSEDLLCDNCSKSLMFLNNVFKWNDLLFCNLDCYTSAILKNQKGADVKHRVACSLSPTWHKDCVHSVQD
  protein production: not failed

## MLYFEDLRPGQLFLSAEHTLSEQEIIAFARQFDPQPFHTDPEAARQTFFNGLAASGWHTSSLSMRLVAESELGRAANGLIGMQIDKMRWPQPSRPGDTLQVEVEVLDKRRSSSQPGFGVVKVSWTTRNQRGETAMQLECAIWLQCRSKAEAAAPELAGAK
  protein production: failed

## MPVSIFMTVVNKSGVLARVTAEIAKADSNIDDITLENDKDYTTMRFILQTRDRQHLAQIFRRLKHIDEIVKMGRIKNLLEHHHHHH
  protein production: not failed

## MTGMRKTLKATLAEARAQVEAALKEEGFGILTEIDVAATLKAKLGLEKPPYLILGACNPNLAARALEALPEIGLLLPCNVVLREAEEGVEVLIQDPKEMFRVLPEATQRALAPVAEEARTRLSRALSRL
  protein production: not failed

## MPAAHPSAISFARQTKAIAMAAKIVPAPDYEDRVRASFARQQAMATIGAELTLVTPGIIEIEMPYSAALTQQHGFLHAGVISTALDSACGYAAFSLMPENSGVLTIEFKVNLLAPGRGERFLFRGSVTKPGRTIIVADGQAYAFAADGEAKLIATMTGTMMTVVGRDGIAG
  protein production: failed

## MGSFHRRTFSYDKLPNEPIRLSVLKLDGSSFDVYVLTSATVGDLKVAIETAFSHVPKKGPSKISWSHVWGHFCLCFGGQKLITDTDCIGNYGMKDGDEVRFKNHVSGNAVLSKGYSRKSKQKNLERVLPKDGDEVLNRIEEIDDSWDDLERGGLVMYKDDDMETSSNESNRSCLSTVHGCCFAFGLKELLGFGNDRAYYSLRDTWRDD
  protein production: failed

## MSQSSDASEKEKPKEKKSQEELEKELDKELKKGGEPKTKKDDQIHKIGETFKAGHTNFTVNKVDRVQKGEYMNVGGAVNEETKTIKDDEERLIIEVTMENIGEDSISYNFIGFDLRDKNDQSVRPVFSIEEKGRILMGGTLVSGKKVTGVLSYVIPKGEQKHYTLVYNPFLADTNSSNTEERVKDDIDYLVKLDLEHHHHHH
  protein production: not failed

## MLRPSVSLAFASSLPQQSVASRAVQRSPLPRRASGHGATEARGMPSHCFIRFCCIVLLAITGCSPAAQSRYAPERNFSDPKALALALAAEQGDAEEVRRLMKVEGVNPDTIFSKDGYPLLFWPIFTHSPAGLKAMLDNGADPNVALPYQTLDRGVRNNPNAMVWAAEQDDPIYLKMLLDHGGNPNTRNANNESLLFHAFIKQNKWDNIKLLVERGADINAVAGMGNSITAAYAIRGGFDFVYWLLQHGADPTIEFAYGNPVHLKDSGIIEAIFWHPGNPKDPQWQRQCQQWLLKRGYERPPLPENYRSMRKAFHFPSEEKEIPLL
  protein production: failed

## MAKSMRCKRVKRLRAIRREIVEKESFTLTREDAKSAAIEAALAAPKLPVRQAPVSPFMEVATPSSESASASTTIANDSDEEMDDEKKNKSLKPIGKKLKKKFKLGMKNRRSKGVLRGKRN
  protein production: failed

## EAGEITFTEWCQGAVDMWRANDITRSDITRATRALKPKAGAVDLLAHLQQTDIRFGILSAGVANLAARFEPYEPAFVRGNWLQFEDRRVSAIDIGVGPNEKGELLRKIRSKQNPVSITYIGDSHTDTEAFIEADTAVLFDPDERVPETAIDAADTIIESADIAEVQNCIPTA
  protein production: failed

## MSYSVTLTGPGPWGFRLQGGKDFNMPLTISRITPGSKAAQSQLSQGDLVVAIDGVNTDTMTHLEAQNKIKSASYNLSLTLQKSKRPIPISTTAPPIQSPLPVIPHQKVVANSPANADYQERFNPSVLKDSALSTHKPIEVKGLGGKATIIHAQYNTPISMYSQDAIMDAIAGQAQAQGSDFSGASPLASLPVKDLAVDSASPVYQAVIKTQSKPEDEADEWARRSSNLQSRSFRILAQMTGTEYMQDPDEEALRRSSTPIEHAPVCTSQATSPLLPASAPSPAAASPIAASPTLATAAAAHAVAASAAGPASSPVENPRPQASAYSPAAATSPAPAAHTSYSEGPAAPAPKPRVVTTASIRPSVYQPVPASPYSPSPGANYSPTPYTPSPAPAYTPSPAPTYTPSPAPTYSPSPAPAYTPSPAPNYNPTPSAAYSGGPSESASRPPWVTDDSFSQKFAPGKSTTSVSKQTLPRGAPAYNPTGPQVTPLARGTFQRAERFPASSRTPLCGHCNNVIRGPFLVAMGRSWHPEEFNCAYCKTSLADVCFVEEQNNVYCERCYEQFFAPICAKCNTKIMGEVMHALRQTWHTTCFICAACKKPFGNSLFHMEDGEPYCEKDYINLFSTKCHGCDFPVEAGDKFIEALGHTWHDTCFICAVCHVNLEGQPFYSKKDKPLCKKHAHAINV
  protein production: failed
